Source: paper PMC3325213 (PLoS Pathogens, 2012)

Target: the molecule itself
Test: SEC; analytical gel filtration, Superdex-200 10/300GL, 50 mM Tris pH 7, 500 mM NaCl, 5% glycerol; mass against protein standards

B1: Tsi2–H6 (C-terminal hexahistidine-tagged Tsi2) (natural protein)
chain: MNLKPQTLMVAIQCVAARTRELDAQLQNDDPQNAAELEQLLVGYDLAADDLKNAYEQALGQYSGLPPYDRLIEEPAS
notes: source: E. coli BL21 pLysS, purified (HisTrap FF, Sephacryl S-200 size exclusion); not shown: His6, C-terminal, kept
stoichiometry N: 2
